Reference: patent US6087330A, “Process to inhibit binding of the integrin α4 β1 to VCAM-1 or fibronectin and cyclic peptides therefor” (Texas Biotechnology Corporation, priority 1998, dated 2000)
Bridges are numbered along the chain shown (N, C = ends). Where no end group is shown, it is not given here.

Biological target: T1, integrin α4 β1 binding to VCAM-1 (Homo sapiens, UniProt P05556+P13612)
T1 construct: endogenous in cells; host or cells: HL-60 cells (integrin α4β1); VCAM-IgG fusion made in house in transfected COS cells
T1 sequence (P13612 34-1032): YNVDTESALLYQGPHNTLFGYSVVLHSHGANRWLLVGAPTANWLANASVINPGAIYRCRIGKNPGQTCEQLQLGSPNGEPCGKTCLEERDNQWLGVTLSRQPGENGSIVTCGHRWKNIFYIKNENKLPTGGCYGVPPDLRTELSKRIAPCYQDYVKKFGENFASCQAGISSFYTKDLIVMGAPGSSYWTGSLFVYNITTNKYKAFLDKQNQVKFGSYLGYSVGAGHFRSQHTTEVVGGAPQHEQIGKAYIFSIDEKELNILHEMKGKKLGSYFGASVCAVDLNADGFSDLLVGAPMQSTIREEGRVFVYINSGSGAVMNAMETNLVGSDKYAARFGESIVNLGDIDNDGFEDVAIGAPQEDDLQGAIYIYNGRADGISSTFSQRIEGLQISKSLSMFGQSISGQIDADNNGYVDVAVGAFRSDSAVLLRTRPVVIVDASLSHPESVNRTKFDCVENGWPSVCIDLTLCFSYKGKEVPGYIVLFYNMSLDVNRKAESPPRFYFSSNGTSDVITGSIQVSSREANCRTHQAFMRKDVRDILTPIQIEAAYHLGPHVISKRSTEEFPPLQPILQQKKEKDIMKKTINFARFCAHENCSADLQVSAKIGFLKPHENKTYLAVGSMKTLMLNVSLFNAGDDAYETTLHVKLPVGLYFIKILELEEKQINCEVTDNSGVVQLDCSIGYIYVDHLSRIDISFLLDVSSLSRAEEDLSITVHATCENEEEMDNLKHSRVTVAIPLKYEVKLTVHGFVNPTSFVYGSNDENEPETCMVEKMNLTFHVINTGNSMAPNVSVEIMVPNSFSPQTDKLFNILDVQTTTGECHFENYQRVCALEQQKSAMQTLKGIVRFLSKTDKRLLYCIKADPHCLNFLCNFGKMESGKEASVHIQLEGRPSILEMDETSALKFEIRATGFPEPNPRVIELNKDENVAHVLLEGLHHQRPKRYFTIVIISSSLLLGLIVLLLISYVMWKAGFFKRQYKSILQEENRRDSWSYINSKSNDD
T1 sequence (P05556 21-798): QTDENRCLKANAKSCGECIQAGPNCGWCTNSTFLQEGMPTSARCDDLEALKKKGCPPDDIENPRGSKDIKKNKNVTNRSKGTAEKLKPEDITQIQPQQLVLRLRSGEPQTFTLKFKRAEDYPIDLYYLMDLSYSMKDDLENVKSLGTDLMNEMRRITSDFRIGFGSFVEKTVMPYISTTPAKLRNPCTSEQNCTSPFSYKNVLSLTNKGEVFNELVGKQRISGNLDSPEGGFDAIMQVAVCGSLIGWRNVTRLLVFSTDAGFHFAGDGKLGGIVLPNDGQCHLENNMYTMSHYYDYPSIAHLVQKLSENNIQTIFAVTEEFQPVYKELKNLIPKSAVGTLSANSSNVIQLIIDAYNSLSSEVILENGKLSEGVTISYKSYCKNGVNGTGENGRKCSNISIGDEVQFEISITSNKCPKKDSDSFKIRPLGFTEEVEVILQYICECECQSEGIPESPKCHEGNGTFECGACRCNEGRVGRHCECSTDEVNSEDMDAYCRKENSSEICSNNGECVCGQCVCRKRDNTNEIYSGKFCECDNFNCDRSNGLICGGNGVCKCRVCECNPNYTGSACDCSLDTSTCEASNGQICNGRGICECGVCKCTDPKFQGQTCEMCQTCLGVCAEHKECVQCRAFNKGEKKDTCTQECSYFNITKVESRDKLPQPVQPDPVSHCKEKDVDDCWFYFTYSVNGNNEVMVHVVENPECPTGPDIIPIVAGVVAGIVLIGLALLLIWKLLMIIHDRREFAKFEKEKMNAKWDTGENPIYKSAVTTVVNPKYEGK
Test: VCAM-1/α4 β1 Binding Assay (binding of labeled HL-60 cells to VCAM-IgG fusion protein on magnetic beads)
Format: cell-based
Settings: 10 min at room temperature
Experimental: Peptides were assayed for their ability to inhibit the binding of the integrin α4 β1 to VCAM. […] The assays are described below.
VCAM-1/α4 β1 Binding Assay
The assay involves determining the ability of cells that express α4 β1 to bind directly to purified VCAM. The integrin-expressing cell type used in this assay was HL-60, a human promyelocytic line.
An expression vector was designed such that a region of VCAM known to bind the integrin was expressed as a fusion protein with mouse IgG. A cDNA containing the two N-terminal domains of human VCAM was generated by the polymerase chain reaction (PCR) from a full length VCAM cDNA. Similarly, a cDNA containing the hinge, CH2 and CH3 regions of mouse IgG, was amplified by PCR from cDNA made from total RNA isolated from the hybridoma cell line 402C10. […]
HL-60 cells were fluorescently labeled with Calcein AM C-3099 (Molecular Probes) and resuspended in 1 ml of binding buffer (Hank's balanced salt solution, pH 7.4, 1.0 mM CaCl2, 1.0 mM MgCl2). […] The remaining bound cells were lysed in 50 mM Tris, pH 7.4, 5.0 mM EDTA, 1.0% NP-40 and quantitated by fluorimetry using a Millipore Cytofluor 2350 fluorimeter. Dose response curves were calculated and IC50 values determined. Alternatively, the percent adhesion was determined at a single peptide concentration for comparison among peptides.

Row | concentration of peptide found to significantly inhibit the binding of α4 β1 integrin to VCAM-1 | Substance
1 | less than 10 μM | Cys-Trp-Leu-Asp-Leu-Cys-acid (CWLDLC-OH; disulfide 1-6; not fully specified (N-terminus, bridges); printed as Cys-Trp-Leu-Asp-Leu-Cys-acid) [SEQ ID NO:28]
2 | less than 10 μM | Cys-Trp-Leu-Asp-Tyr-Cys-acid (CWLDYC-OH; disulfide 1-6; not fully specified (N-terminus, bridges); printed as Cys-Trp-Leu-Asp-Tyr-Cys-acid) [SEQ ID NO:29]
